The numbers were not newly measured in patent publication US20060084109, which cites them from elsewhere.

This data set concerns the target T1, Formamidopyrimidine glycosylase (Fpg, MutM) (Escherichia coli) (UniProt P05523).
T1 sequence: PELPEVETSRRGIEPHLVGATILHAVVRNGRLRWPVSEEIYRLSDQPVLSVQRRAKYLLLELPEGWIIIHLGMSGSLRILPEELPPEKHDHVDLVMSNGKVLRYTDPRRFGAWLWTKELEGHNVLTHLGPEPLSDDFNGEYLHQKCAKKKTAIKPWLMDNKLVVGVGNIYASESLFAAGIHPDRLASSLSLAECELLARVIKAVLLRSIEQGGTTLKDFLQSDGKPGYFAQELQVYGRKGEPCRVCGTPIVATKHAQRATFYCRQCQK
As to the kind of experiment: cleavage_in_vitro. Particulars: 8-oxo-dG at position 10, cytidine opposite in complementary strand; CITED Vuyisich and Beal 2002; product from 20 nM substrate, 1 nM Fpg, 7 min, room temperature, no inhibitor.

As for “TCATGGGTCNTCGGTATA (double strand) [Fpg 18-mer 8-oxo-dG substrate duplex]”, the activity is 2 nM.
